Article doi:10.1101/2022.11.11.516098

How the values were obtained:
MLEΔG [1] = target: T1, MLEΔG (UniProt P24785 1-1158); assay: cryo-EM
MLEΔG [2] = target: T1, MLEΔG; assay: fluorescence polarization
MLEΔGin = MLEΔGin (UniProt P24785 1-1158, E195C;S633C); assay: fluorescence polarization

B1: U10 RNA (ssRNA)
RNA: UUUUUUUUUU
B1: binds (MLEΔG [1]).

B2: SL7 (SL7mod-UUC) RNA (structured_RNA)
RNA: GUGUAAAAUGUUGCUAGCAAAUAUAUAUGCUAGUAACGUUUUACGCCCUCUUUCUUUCUU
For B2, the “apparent K (half saturation)” value (MLEΔG [2]) was 16 nM.

B3: UUC RNA (fluorescein) (ssRNA)
RNA: CCUCUUUCUUUC
Work on B3 yielded an IC50 (MLEΔG [2]) of 302 ± 43 nM and an IC50 (MLEΔGin) of 280 ± 19 nM.
